Laboratory results published in patent publication US20210380703A1.

These binders were tested against Human Fc (human) (assay: ELISA; negative control).

Binder | optical density [OD]
370_B08 (antibody, V domains shown) VH: EVQLLESGGGLVQPGGSLRLSCAASGFTFSDYSMNWVRQAPGKGLEWVANINYNGGYTGYADSVKGRFTISRDNSKNTLYLQMNSLRAEDTAVYYCARGATWHDTHLDYWGQGTLVTVSS VL: DIQMTQSPSSLSASVGDRVTITCRASQSILSYLNWYQQKPGKAPKLLIYAASSLQSGVPSRFSGSGSGTDFTLTISSLQPEDFATYYCQQSYDSPLTFGGGTKVEIK | 0.302
370_D09 (antibody, V domains shown) VH: EVQLLESGGGLVQPGGSLRLSCAASGFTFSDYSMNWVRQAPGKGLEWVSGINYNSGYTSYADSVKGRFTISRDNSKNTLYLQMNSLRAEDTAVYYCARGATWHDTHLDYWGQGTLVTVSS VL: DIQMTQSPSSLSASVGDRVTITCRASQSIVTYLNWYQQKPGKAPKLVIYAATSRASGVPSRFSGSGSGTDFTLTISSLQPEDFATYYCQQSYDTPLTFGGGTKVEIK | 0.287
370_E05 (antibody, V domains shown) VH: EVQLLESGGGLVQPGGSLRLSCAASGFTFSSYGMNWVRQAPGKGLEWVSNINYNGGYKGYADSVKGRFTISRDNSKNTLYLQMNSLRAEDTAVYYCARGATWHDTHLDYWGQGTLVTVSS VL: DIQMTQSPSSLSASVGDRVTITCRASQSISTYLNWYQQKPGKAPKLVIYAVTSRASGVPSRFSGSGSGTDFTLTISSLQPEDFATYYCQQSYNSPLTFGGGTKVEIK | 0.427
370_D03 (antibody, V domains shown) VH: EVQLLESGGGLVQPGGSLRLSCAASGFTFSSYSMNWVRQAPGKGLEWVASINYNGGYTSYADSVKGRFTISRDNSKNTLYLQMNSLRAEDTAVYYCARGATWHDTHLDYWGQGTLVTVSS VL: DIQMTQSPSSLSASVGDRVTITCRASQSIITYLNWYQQKPGKAPKLLIYAATSRASGVPSRFSGSGSGTDFTLTISSLQPEDFATYYCQQSYDLPLTFGGGTKVEIK | 0.57
370_F12 (antibody, V domains shown) VH: EVQLLESGGGLVQPGGSLRLSCAASGFTFSDYSMNWVRQAPGKGLEWVANINYNGGYTGYADSVKGRFTISRDNSKNTLYLQMNSLRAEDTAVYYCARGATWHDTHLDYWGQGTLVTVSS VL: DIQMTQSPSSLSASVGDRVTITCRASQSILSYLNWYQQKPGKAPKLLIYAASSLQSGVPSRFSGSGSGTDFTLTISSLQPEDFATYYCQQSYDSPLTFGGGTKVEIK | 0.457
370_F02 (antibody, V domains shown) VH: EVQLLESGGGLVQPGGSLRLSCAASGFTFDSYGMNWVRQAPGKGLEWVANINYNGGYTGYADSVKGRFTISRDNSKNTLYLQMNSLRAEDTAVYYCARGATWHDTHLDYWGQGTLVTVSS VL: DIQMTQSPSSLSASVGDRVTITCRASQSILSYLNWYQQKPGKAPKLLIYAVTSRHSGVPSRFSGSGSGTDFTLTISSLQPEDFATYYCQQSYDSPLTFGGGTKVEIK | 0.376
370_F01 (antibody, V domains shown) VH: EVQLLESGGGLVQPGGSLRLSCAASGFTFSSYGMNWVRQAPGKGLEWVSNINYNGGYTSYADSVKGRFTISRDNSKNTLYLQMNSLRAEDTAVYYCARGATWHDTHLDYWGQGTLVTVSS VL: DIQMTQSPSSLSASVGDRVTITCRASQSIVSYLNWYQQKPGKAPKLLIYAATSRASGVPSRFSGSGSGTDFTLTISSLQPEDFATYYCQQSYDSPLTFGGGTKVEIK | 0.407
370_C07 (antibody, V domains shown) VH: EVQLLESGGGLVQPGGSLRLSCAASGFTFSSYSMNWVRQAPGKGLEWVANINYNGGYKSYADSVKGRFTISRDNSKNTLYLQMNSLRAEDTAVYYCARGATWHDTHLDYWGQGTLVTVSS VL: DIQMTQSPSSLSASVGDRVTITCRASQSILSYLNWYQQKPGKAPKLLIYAATSRHSGVPSRFSGSGSGTDFTLTISSLQPEDFATYYCQQSYESPLTFGGGTKVEIK | 0.316
370_E04 (antibody, V domains shown) VH: EVQLLESGGGLVQPGGSLRLSCAASGFTFSSYSMNWVRQAPGKGLEWVANINYNGGYKGYADSVKGRFTISRDNSKNTLYLQMNSLRAEDTAVYYCARGATWHDTHLDYWGQGTLVTVSS VL: DIQMTQSPSSLSASVGDRVTITCRASQSILTYLNWYQQKPGKAPKLLIYAVTSLHSGVPSRFSGSGSGTDFTLTISSLQPEDFATYYCQQSYETPLTFGGGTKVEIK | 0.292

The remaining lines, values ahead:

optical density [OD] | Binder
0.308 | 371_C06 (antibody, V domains shown) VH: EVQLLESGGGLVQPGGSLRLSCAASGFTFSSYSMNWVRQAPGKGLEWVSSINYNGGYTSYADSVKGRFTISRDNSKNTLYLQMNSLRAEDTAVYYCARGATWHDTHLDYWGQGTLVTVSS VL: DIQMTQSPSSLSASVGDRVTITCRASQSISSYLNWYQQKPGKAPKLLIYAVTSRASGVPSRFSGSGSGTDFTLTISSLQPEDFATYYCQQSYDLPLTFGGGTKVEIK
0.364 | 370_G08 (antibody, V domains shown) VH: EVQLLESGGGLVQPGGSLRLSCAASGFTFSDYSMNWVRQAPGKGLEWVAGINYNGGYTGYADSVKGRFTISRDNSKNTLYLQMNSLRAEDTAVYYCARGATWHDTHLDYWGQGTLVTVSS VL: DIQMTQSPSSLSASVGDRVTITCRASQSILTYLNWYQQKPGKAPKLVIYAATSRASGVPSRFSGSGSGTDFTLTISSLQPEDFATYYCQQSYESPLTFGGGTKVEIK
0.306 | 371_E09 (antibody, V domains shown) VH: EVQLLESGGGLVQPGGSLRLSCAASGFTFSDYSMNWVRQAPGKGLEWVSGINYNSGYTSYADSVKGRFTISRDNSKNTLYLQMNSLRAEDTAVYYCARGATWHDTHLDYWGQGTLVTVSS VL: DIQMTQSPSSLSASVGDRVTITCRASQSILTYLNWYQQKPGKAPKLLIYAATSRASGVPSRFSGSGSGTDFTLTISSLQPEDFATYYCQQSYNSPLTFGGGTKVEIK
0.363 | 371_H11 (antibody, V domains shown) VH: EVQLLESGGGLVQPGGSLRLSCAASGFTFSSYSMNWVRQAPGKGLEWVSGINYNGGYKGYADSVKGRFTISRDNSKNTLYLQMNSLRAEDTAVYYCARGATWHDTHLDYWGQGTLVTVSS VL: DIQMTQSPSSLSASVGDRVTITCRASQSILTYLNWYQQKPGKAPKLLIYATTSRHSGVPSRFSGSGSGTDFTLTISSLQPEDFATYYCQQSYESPLTFGGGTKVEIK
0.252 | 371_F03 (antibody, V domains shown) VH: EVQLLESGGGLVQPGGSLRLSCAASGFTFSSYSMNWVRQAPGKGLEWVSGINYNGGYTSYADSVKGRFTISRDNSKNTLYLQMNSLRAEDTAVYYCARGATWHDTHLDYWGQGTLVTVSS VL: DIQMTQSPSSLSASVGDRVTITCRASQSIITYLNWYQQKPGKAPKLLIYAATSLHSGVPSRFSGSGSGTDFTLTISSLQPEDFATYYCQQSYDNPLTFGGGTKVEIK
0.251 | 371_E08 (antibody, V domains shown) VH: EVQLLESGGGLVQPGGSLRLSCAASGFTFSSYSMNWVRQAPGKGLEWVSNINYNSGYKSYADSVKGRFTISRDNSKNTLYLQMNSLRAEDTAVYYCARGATWHDTHLDYWGQGTLVTVSS VL: DIQMTQSPSSLSASVGDRVTITCRASQSIVSYVNWYQQKPGKAPKLVIYAATSRHSGVPSRFSGSGSGTDFTLTISSLQPEDFATYYCQQSYDLPLTFGGGTKVEIK
0.398 | 371_E12 (antibody, V domains shown) VH: EVQLLESGGGLVQPGGSLRLSCAASGFTFDSYSMNWVRQAPGKGLEWVSGINYNSGYKSYADSVKGRFTISRDNSKNTLYLQMNSLRAEDTAVYYCARGATWHDTHLDYWGQGTLVTVSS VL: DIQMTQSPSSLSASVGDRVTITCRASQSILSYLNWYQQKPGKAPKLLIYAATSLASGVPSRFSGSGSGTDFTLTISSLQPEDFATYYCQQSYDTPLTFGGGTKVEIK
0.464 | 371_B01 (antibody, V domains shown) VH: EVQLLESGGGLVQPGGSLRLSCAASGFTFDSYSMNWVRQAPGKGLEWVSNINYNSGYTGYADSVKGRFTISRDNSKNTLYLQMNSLRAEDTAVYYCARGATWHDTHLDYWGQGTLVTVSS VL: DIQMTQSPSSLSASVGDRVTITCRASQSILSYVNWYQQKPGKAPKLLIYAATSLASGVPSRFSGSGSGTDFTLTISSLQPEDFATYYCQQSYDLPLTFGGGTKVEIK
0.602 | 371_F09 (antibody, V domains shown) VH: EVQLLESGGGLVQPGGSLRLSCAASGFTFSSYSMNWVRQAPGKGLEWVAGINYNGGYTSYADSVKGRFTISRDNSKNTLYLQMNSLRAEDTAVYYCARGATWHDTHLDYWGQGTLVTVSS VL: DIQMTQSPSSLSASVGDRVTITCRASQSILTYLNWYQQKPGKAPKLLIYAATSRASGVPSRFSGSGSGTDFTLTISSLQPEDFATYYCQQSYDNPLTFGGGTKVEIK
0.358 | 370_H06 (antibody, V domains shown) VH: EVQLLESGGGLVQPGGSLRLSCAASGFTFDDYSMNWVRQAPGKGLEWVANINYNGGYTGYADSVKGRFTISRDNSKNTLYLQMNSLRAEDTAVYYCARGATWHDTHLDYWGQGTLVTVSS VL: DIQMTQSPSSLSASVGDRVTITCRASQSILTYLNWYQQKPGKAPKLLIYAATSRASGVPSRFSGSGSGTDFTLTISSLQPEDFATYYCQQSYETPLTFGGGTKVEIK
0.287 | 371_C07 (antibody, V domains shown) VH: EVQLLESGGGLVQPGGSLRLSCAASGFTFDSYGMNWVRQAPGKGLEWVSNINYNGGYTGYADSVKGRFTISRDNSKNTLYLQMNSLRAEDTAVYYCARGATWHDTALDYWGQGTLVTVSS VL: DIQMTQSPSSLSASVGDRVTITCRASQSILSYLNWYQQKPGKAPKLLIYAATSLASGVPSRFSGSGSGTDFTLTISSLQPEDFATYYCQQSYDTPLTFGGGTKVEIK
0.596 | 370_H04 (antibody, V domains shown) VH: EVQLLESGGGLVQPGGSLRLSCAASGFTFSSYSMNWVRQAPGKGLEWVSNINYNGGYTGYADSVKGRFTISRDNSKNTLYLQMNSLRAEDTAVYYCARGATWHDTHLDYWGQGTLVTVSS VL: DIQMTQSPSSLSASVGDRVTITCRASQSILSYVNWYQQKPGKAPKLLIYAATSRASGVPSRFSGSGSGTDFTLTISSLQPEDFATYYCQQSYDLPLTFGGGTKVEIK
0.375 | 371_G01 (antibody, V domains shown) VH: EVQLLESGGGLVQPGGSLRLSCAASGFTFSDYSMNWVRQAPGKGLEWVSNINYNGGYTSYADSVKGRFTISRDNSKNTLYLQMNSLRAEDTAVYYCARGATWHDTHLDYWGQGTLVTVSS VL: DIQMTQSPSSLSASVGDRVTITCRASQSILTYLNWYQQKPGKAPKLLIYAATSLASGVPSRFSGSGSGTDFTLTISSLQPEDFATYYCQQSYDLPLTFGGGTKVEIK
